Reference: patent US20170014503A1

Experiments:
[1] = molecular target: SP62 (gp41 652-671)-GTH1 peptide anchored to liposomes (HIV-1); assay: BIAcore SPR on liposome-anchored peptide; encounter-docking model; forward rate of the docking step
[2] = molecular target: SP62-L669S (gp41 652-671)-GTH1 peptide anchored to liposomes (HIV-1); assay: as above
[3] = molecular target: SP62 (gp41 652-671)-GTH1 peptide anchored to liposomes (HIV-1); assay: BIAcore SPR on liposome-anchored peptide; encounter-docking model A + B <-> AB (encounter) <-> ABx (docked); association of the encounter step
[4] = molecular target: SP62-L669S (gp41 652-671)-GTH1 peptide anchored to liposomes (HIV-1); assay: as above
[5] = molecular target: SP62 (gp41 652-671)-GTH1 peptide anchored to liposomes (HIV-1); assay: BIAcore SPR on liposome-anchored peptide; encounter-docking model; reverse rate of the docking step
[6] = molecular target: SP62-L669S (gp41 652-671)-GTH1 peptide anchored to liposomes (HIV-1); assay: as above
[7] = molecular target: KYNU mut
[8] = molecular target: KYNU wt
[9] = molecular target: SP62 (gp41 652-671)-GTH1 peptide anchored to liposomes (HIV-1); assay: SPR, peptide anchored to phospholipid liposomes
[10] = molecular target: SP62-L669S (gp41 652-671)-GTH1 peptide anchored to liposomes (HIV-1); assay: SPR, peptide anchored to phospholipid liposomes
[11] = molecular target: SP62 (gp41 652-671)-GTH1 peptide anchored to liposomes (HIV-1); assay: BIAcore SPR on liposome-anchored peptide; encounter-docking model; dissociation of the encounter step
[12] = molecular target: SP62-L669S (gp41 652-671)-GTH1 peptide anchored to liposomes (HIV-1); assay: as above

## 2F5 mAb (antibody)
[1]
  ka2: 0.0181 s⁻¹
[2]
  ka2: 0.0054 s⁻¹
[3]
  ka1: 931000 M⁻¹ s⁻¹
[4]
  ka1: 498000 M⁻¹ s⁻¹
[5]
  kd2: 0.00037 s⁻¹
[6]
  kd2: 2e-05 s⁻¹
[7]
  reactivity value in column 'KYNU mut': 0.465
[8]
  reactivity value in column 'KYNU wt': 3.63
[9]
  response unit at 10 seconds after the injection was stopped: 495 RU
[10]
  response unit (background subtracted) at 10 seconds after the injection was stopped: 617 RU
[11]
  kd1: 0.00692 s⁻¹
[12]
  kd1: 0.00119 s⁻¹
